These results are taken from paper PMC3327772.

This assay deals with IAEDANS labeled sarcoplasmic reticulum Ca-ATPase (SERCA) (rabbit (purified from rabbit skeletal muscle)) (UniProt P04191). Briefly: FRET or BRET.

As to “Dabcyl labeled monomeric AFA-PLB mutant (C36A/C41F/C46A) of phospholamban (peptide)”, the Xb (fraction of SERCA bound to PLB) (mole fraction) came out at 0.82.
